{"source": "patent US20180311326A1", "about": "(FRAUNHOFER GESELLSCHAFT ZUR FOERDERUNG DER ANGEWANDTEN …, published 2018)", "binders": {"B1": {"name": "MSP119_3D7-HC1.2-ER (Fc fusion)", "chain": "ISQHQCVKKQCPENSGCFRHLDEREECKCLLNYKQEGDKCVENPNPTCNENNGGCDADATCTEEDSGSSRKKITCECTKPDSYPLFDGIFCSSSNAAAKGPSVFPLAPSSKSTSGGTAALGCLVKDYFPEPVTVSWNSGALTSGVHTFPAVLQSSGLYSLSSVVTVPSSSLGTQTYICNVNHKPSNTKVDKKVEPKSCDKTHTCPPCPAPELLGGPSVFLFPPKPKDTLMISRTPEVTCVVVDVSHEDPEVKFNWYVDGVEVHNAKTKPREEQYNSTYRVVSVLTVLHQDWLNGKEYKCKVSNKAFPAPIEKTISKAKGQPREPQVYTLPPSRDKLTKNQVSLTCLVKGFYPSDIAVEWESNGQPENNYKTTPPVLKSDGSFFLYSKLTVDKSRWQQGNVFSCSVMHEALHNHYTQKSLSLSPGKSEKDEL", "notes": "PfMSP119 (3D7) fused to human IgG1 constant region with E356K and D399K already in the entry; also called MSP119-modHC1_E356K-D399K; PfMSP119_3D7-HC1.2-ER"}}, "target": "T1, AMA1_GKO-HC2.2", "T1 construct": "PfAMA1_GKO fused to human IgG1 constant region with K392D and K409D already in the entry; also called AMA1GKO-modHC2_K392D-K409D; PfAMA1_GKO-HC2.2-ER", "experiment": "co-expression in N. benthamiana, SDS-PAGE under reducing and non-reducing conditions", "data": [{"binder": "B1", "values": [{"measurement": "binding result", "result": "binds"}]}]}
